Starred links: 1 amine or outer side, 2 acyl side, 3 side chain; linkers in the order of their positions; H or OH if unused. Positions of bridges follow the written chain, without caps; N, C: chain ends. Non-standard residues stand in square brackets, D forms with d. Groups on a side chain read outwards from the residue. *: point of attachment. Trp(1-Me) = Cn1cc(C[C@H](N)C(=O)O)c2ccccc21; C18 diacid = O=C(O)CCCCCCCCCCCCCCCCC(=O)*; C16 diacid = O=C(O)CCCCCCCCCCCCCCC(=O)*; γGlu = O=C(O)[C@H](CCC(=O)[*:2])N[*:1]; hCys = N[C@@H](CCS)C(=O)O; AEEA = NCCOCCOCC(=O)O; Sar = CNCC(=O)O
How the values were obtained:
Human C3 [1] = molecular target: T1, Human C3 (human, UniProt P01024 23-1663); assay: SPR, C3 immobilised
T1 construct: In SPR the bought human C3 was immobilised on CM5 chips by amine coupling; In the haemolysis assay the C3 is that of diluted human serum; also called complement C3
Method: Surface plasmon resonance (SPR) was used to characterize peptides with respect to their binding affinity (Kd) for C3. Human C3 (Complement tech cat #A1 13c) was immobilised on individual flow cells of CM5 sensor chips (GE Healthcare) using standard amine coupling to a density of approximately 3000 resonance units (RU) in a buffer consisting of 10 mM phosphate pH 7.4, 150 mM NaCl, 0.05% Tween20.
For interaction experiments a multi-cycle experiment approach was used and performed using either a Biacore™ T200 or Biacore™ X100 instrument (GE Healthcare) at 25° C. Peptides were injected in increasing concentration series (5-8 different concentrations) for 60-120 s at a flow rate of 30 μL/min in a buffer consisting of 10 mM Tris buffer at pH 7.4, with 150 mM NaCl and 0.05% Tween20. This was followed by a dissociation period for up to 10 min. The C3 surface was regenerated between runs by a 45 s injection of 3 M MgCl₂.
Sensorgrams were double-referenced (reference surface, blanks) prior to analysis of the kinetic profiles by globally fitting data to a 1:1 Langmuir binding model to obtain association and dissociation rates for calculation of the equilibrium dissociation constant Kd. Each peptide was tested at in at least 2 independent experiments.

Human C3 [2] = molecular target: T1, Human C3; assay: cell-based or functional assay

T1 sequence (P01024 23-1663 limits assumed): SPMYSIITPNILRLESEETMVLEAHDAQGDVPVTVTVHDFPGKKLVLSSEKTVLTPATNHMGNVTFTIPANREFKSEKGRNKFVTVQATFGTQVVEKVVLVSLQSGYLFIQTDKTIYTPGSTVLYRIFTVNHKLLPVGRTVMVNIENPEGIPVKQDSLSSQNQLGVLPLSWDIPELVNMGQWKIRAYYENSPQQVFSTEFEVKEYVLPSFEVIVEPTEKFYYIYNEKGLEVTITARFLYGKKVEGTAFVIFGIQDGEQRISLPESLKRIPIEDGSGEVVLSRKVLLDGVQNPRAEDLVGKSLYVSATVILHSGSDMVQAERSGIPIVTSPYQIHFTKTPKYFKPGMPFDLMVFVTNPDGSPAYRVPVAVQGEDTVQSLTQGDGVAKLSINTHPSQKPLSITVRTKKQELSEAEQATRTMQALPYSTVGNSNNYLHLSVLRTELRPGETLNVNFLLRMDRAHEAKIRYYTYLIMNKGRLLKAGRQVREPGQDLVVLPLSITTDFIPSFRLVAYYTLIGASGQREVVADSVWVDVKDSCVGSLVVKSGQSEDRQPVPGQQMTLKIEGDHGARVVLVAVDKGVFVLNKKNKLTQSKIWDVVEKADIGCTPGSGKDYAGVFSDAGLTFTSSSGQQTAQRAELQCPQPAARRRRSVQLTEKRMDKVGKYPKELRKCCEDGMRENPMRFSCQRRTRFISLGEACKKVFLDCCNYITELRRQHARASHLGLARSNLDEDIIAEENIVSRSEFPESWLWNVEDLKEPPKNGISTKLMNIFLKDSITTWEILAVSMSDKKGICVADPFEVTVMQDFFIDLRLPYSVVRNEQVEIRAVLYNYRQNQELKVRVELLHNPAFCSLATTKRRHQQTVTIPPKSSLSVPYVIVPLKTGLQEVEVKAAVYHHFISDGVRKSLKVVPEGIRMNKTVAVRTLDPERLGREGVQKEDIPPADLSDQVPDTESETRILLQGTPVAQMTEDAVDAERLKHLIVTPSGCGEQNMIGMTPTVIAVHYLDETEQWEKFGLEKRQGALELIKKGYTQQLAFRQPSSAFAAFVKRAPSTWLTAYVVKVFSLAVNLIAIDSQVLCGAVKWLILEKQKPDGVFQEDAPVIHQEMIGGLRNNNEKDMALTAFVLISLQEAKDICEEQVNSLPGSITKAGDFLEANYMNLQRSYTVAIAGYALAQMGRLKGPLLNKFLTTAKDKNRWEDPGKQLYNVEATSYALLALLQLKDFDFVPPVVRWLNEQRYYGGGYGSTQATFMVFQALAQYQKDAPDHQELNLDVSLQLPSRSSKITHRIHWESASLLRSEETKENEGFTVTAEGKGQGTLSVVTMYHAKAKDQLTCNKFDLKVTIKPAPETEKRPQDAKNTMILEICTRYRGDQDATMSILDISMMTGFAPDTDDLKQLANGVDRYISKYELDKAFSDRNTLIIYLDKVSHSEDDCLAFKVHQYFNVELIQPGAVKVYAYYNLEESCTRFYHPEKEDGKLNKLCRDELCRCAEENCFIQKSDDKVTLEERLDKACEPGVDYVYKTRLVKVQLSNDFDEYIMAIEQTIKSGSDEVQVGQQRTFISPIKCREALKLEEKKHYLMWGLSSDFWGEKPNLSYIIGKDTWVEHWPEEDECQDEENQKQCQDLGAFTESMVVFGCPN

For Ac-SEFAI[Trp(1-Me)]QDWGEHR[hCys][Sar]EGAK([AEEA-γGlu-AEEA-Gly-γGlu-C18 diacid])-NH2 (thioether 4-14; not fully specified) [Compound 154], the Kd (Human C3 [1]) was 2.4 nM and the “IC50[nM], inhibition of hemolysis” value (Human C3 [2]) was under 100 nM.

With Ac-SEFCI[Trp(1-Me)]QDWGEHRC[Sar]EGE[AEEA][AEEA]K([γGlu-Gly-γGlu-C16 diacid])-NH2 (disulfide 4-14) [Compound 127] the Kd (Human C3 [1]) was 8.5 nM and the “IC50[nM], inhibition of hemolysis” value (Human C3 [2]) was under 100 nM.

B1: Compound 130 (peptide)
peptide: Ac-SEFCI[Trp(1-Me)]QDWGEHRCTEGEGGGK([γGlu-Gly-γGlu-C18 diacid])-NH2
modifications: disulfide 4-14
SMILES: CC[C@H](C)[C@@H]1NC(=O)[C@@H](NC(=O)[C@H](Cc2ccccc2)NC(=O)[C@H](CCC(=O)O)NC(=O)[C@H](CO)NC(C)=O)CSSC[C@@H](C(=O)N[C@H](C(=O)N[C@@H](CCC(=O)O)C(=O)NCC(=O)N[C@@H](CCC(=O)O)C(=O)NCC(=O)NCC(=O)NCC(=O)N[C@@H](CCCCNC(=O)CC[C@H](NC(=O)CNC(=O)CC[C@H](NC(=O)CCCCCCCCCCCCCCCCC(=O)O)C(=O)O)C(=O)O)C(N)=O)[C@@H](C)O)NC(=O)[C@H](CCCNC(=N)N)NC(=O)[C@H](Cc2c[nH]cn2)NC(=O)[C@H](CCC(=O)O)NC(=O)CNC(=O)[C@H](Cc2c[nH]c3ccccc23)NC(=O)[C@H](CC(=O)O)NC(=O)[C@H](CCC(N)=O)NC(=O)[C@H](Cc2cn(C)c3ccccc23)NC1=O
B1 was tested, and the Kd (Human C3 [1]) was 4.4 nM and the “IC50[nM], inhibition of hemolysis” value (Human C3 [2]) was under 100 nM.

B2: Compound 157 (peptide)
peptide: Ac-SEFAI[Trp(1-Me)]QDWGEHR[hCys]TEGEGGGK([γGlu-Gly-γGlu-C18 diacid])-NH2
modifications: thioether 4-14
SMILES: CC[C@H](C)[C@@H]1NC(=O)[C@@H](NC(=O)[C@H](Cc2ccccc2)NC(=O)[C@H](CCC(=O)O)NC(=O)[C@H](CO)NC(C)=O)CSCC[C@@H](C(=O)N[C@H](C(=O)N[C@@H](CCC(=O)O)C(=O)NCC(=O)N[C@@H](CCC(=O)O)C(=O)NCC(=O)NCC(=O)NCC(=O)N[C@@H](CCCCNC(=O)CC[C@H](NC(=O)CNC(=O)CC[C@H](NC(=O)CCCCCCCCCCCCCCCCC(=O)O)C(=O)O)C(=O)O)C(N)=O)[C@@H](C)O)NC(=O)[C@H](CCCNC(=N)N)NC(=O)[C@H](Cc2c[nH]cn2)NC(=O)[C@H](CCC(=O)O)NC(=O)CNC(=O)[C@H](Cc2c[nH]c3ccccc23)NC(=O)[C@H](CC(=O)O)NC(=O)[C@H](CCC(N)=O)NC(=O)[C@H](Cc2cn(C)c3ccccc23)NC1=O
In the case of B2, the Kd (Human C3 [1]) is reported as 3.5 nM and the “IC50[nM], inhibition of hemolysis” value (Human C3 [2]) is reported as under 100 nM.

B3: Compound 139 (peptide)
peptide: Ac-SEFCI[Trp(1-Me)]QDWGEHRC[Sar]EGESESK([γGlu-Gly-γGlu-C18 diacid])-NH2
modifications: disulfide 4-14
SMILES: CC[C@H](C)[C@@H]1NC(=O)[C@@H](NC(=O)[C@H](Cc2ccccc2)NC(=O)[C@H](CCC(=O)O)NC(=O)[C@H](CO)NC(C)=O)CSSC[C@@H](C(=O)N(C)CC(=O)N[C@@H](CCC(=O)O)C(=O)NCC(=O)N[C@@H](CCC(=O)O)C(=O)N[C@@H](CO)C(=O)N[C@@H](CCC(=O)O)C(=O)N[C@@H](CO)C(=O)N[C@@H](CCCCNC(=O)CC[C@H](NC(=O)CNC(=O)CC[C@H](NC(=O)CCCCCCCCCCCCCCCCC(=O)O)C(=O)O)C(=O)O)C(N)=O)NC(=O)[C@H](CCCNC(=N)N)NC(=O)[C@H](Cc2c[nH]cn2)NC(=O)[C@H](CCC(=O)O)NC(=O)CNC(=O)[C@H](Cc2c[nH]c3ccccc23)NC(=O)[C@H](CC(=O)O)NC(=O)[C@H](CCC(N)=O)NC(=O)[C@H](Cc2cn(C)c3ccccc23)NC1=O
For B3, the Kd (Human C3 [1]) was 7.4 nM and the “IC50[nM], inhibition of hemolysis” value (Human C3 [2]) was under 100 nM.

With Ac-SEFCI[Trp(1-Me)]QDWGEHRC[Sar]EGE[AEEA]ESK([γGlu-γGlu-C18 diacid])-NH2 (disulfide 4-14) [Compound 140] the Kd (Human C3 [1]) was 7.6 nM and the “IC50[nM], inhibition of hemolysis” value (Human C3 [2]) was under 100 nM.

In the case of Ac-SEFCI[Trp(1-Me)]QDWGEHRCTEGE[AEEA]ESK([γGlu-C18 diacid])-NH2 (disulfide 4-14) [Compound 142], the Kd (Human C3 [1]) is reported as 4.8 nM and the “IC50[nM], inhibition of hemolysis” value (Human C3 [2]) is reported as under 100 nM.

B4: Compound 150 (peptide)
peptide: SEFAIWQDWGEHRCGEGEXESK
modifications: not fully specified; N-acetyl; C-terminal amide; delta-cystathionine (Ctt2) thioether bridge A4-hCys14 (hCys written C); W6 is 1-Me-Trp; G10 is Sar; G15 is Sar; X19 is Peg3; K22 side chain bears [17-carboxy-heptadecanoyl][γGlu]G[γGlu]
In the case of B4, the Kd (Human C3 [1]) is reported as 0.56 nM and the “IC50[nM], inhibition of hemolysis” value (Human C3 [2]) is reported as under 100 nM.

B5: Compound 165 (peptide)
peptide: Ac-SEF[hCys]I[Trp(1-Me)]QDWGEHRATEGE[AEEA]ESK([γGlu-C18 diacid])-NH2
modifications: thioether 4-14
SMILES: CC[C@H](C)[C@@H]1NC(=O)[C@@H](NC(=O)[C@H](Cc2ccccc2)NC(=O)[C@H](CCC(=O)O)NC(=O)[C@H](CO)NC(C)=O)CCSC[C@@H](C(=O)N[C@H](C(=O)N[C@@H](CCC(=O)O)C(=O)NCC(=O)N[C@@H](CCC(=O)O)C(=O)NCCOCCOCC(=O)N[C@@H](CCC(=O)O)C(=O)N[C@@H](CO)C(=O)N[C@@H](CCCCNC(=O)CC[C@H](NC(=O)CCCCCCCCCCCCCCCCC(=O)O)C(=O)O)C(N)=O)[C@@H](C)O)NC(=O)[C@H](CCCNC(=N)N)NC(=O)[C@H](Cc2c[nH]cn2)NC(=O)[C@H](CCC(=O)O)NC(=O)CNC(=O)[C@H](Cc2c[nH]c3ccccc23)NC(=O)[C@H](CC(=O)O)NC(=O)[C@H](CCC(N)=O)NC(=O)[C@H](Cc2cn(C)c3ccccc23)NC1=O
For B5, the Kd (Human C3 [1]) was 20.7 nM and the “IC50[nM], inhibition of hemolysis” value (Human C3 [2]) was under 250 nM.

B6: Compound 141 (peptide)
peptide: Ac-SEFCI[Trp(1-Me)]QDWGEHRC[Sar]EGESESK([γGlu-C18 diacid])-NH2
modifications: disulfide 4-14
SMILES: CC[C@H](C)[C@@H]1NC(=O)[C@@H](NC(=O)[C@H](Cc2ccccc2)NC(=O)[C@H](CCC(=O)O)NC(=O)[C@H](CO)NC(C)=O)CSSC[C@@H](C(=O)N(C)CC(=O)N[C@@H](CCC(=O)O)C(=O)NCC(=O)N[C@@H](CCC(=O)O)C(=O)N[C@@H](CO)C(=O)N[C@@H](CCC(=O)O)C(=O)N[C@@H](CO)C(=O)N[C@@H](CCCCNC(=O)CC[C@H](NC(=O)CCCCCCCCCCCCCCCCC(=O)O)C(=O)O)C(N)=O)NC(=O)[C@H](CCCNC(=N)N)NC(=O)[C@H](Cc2c[nH]cn2)NC(=O)[C@H](CCC(=O)O)NC(=O)CNC(=O)[C@H](Cc2c[nH]c3ccccc23)NC(=O)[C@H](CC(=O)O)NC(=O)[C@H](CCC(N)=O)NC(=O)[C@H](Cc2cn(C)c3ccccc23)NC1=O
For B6, the Kd (Human C3 [1]) was 6.6 nM and the “IC50[nM], inhibition of hemolysis” value (Human C3 [2]) was under 100 nM.

B7: Compound 147 (peptide)
peptide: SEFAIWQDWGEHRCGEXXK
modifications: not fully specified; N-acetyl; C-terminal amide; delta-cystathionine (Ctt2) thioether bridge A4-hCys14 (hCys written C); W6 is 1-Me-Trp; G10 is Sar; G15 is Sar; X17 and X18 are Peg3; K19 side chain bears [17-carboxy-heptadecanoyl][γGlu]G[γGlu]
In the case of B7, the Kd (Human C3 [1]) is reported as 0.71 nM and the “IC50[nM], inhibition of hemolysis” value (Human C3 [2]) is reported as under 100 nM.

For Ac-SEF[hCys]I[Trp(1-Me)]QDW[Sar]EHRA[Sar]E[AEEA][AEEA]K([γGlu-Gly-γGlu-C18 diacid])-NH2 (thioether 4-14) [Compound 164], the Kd (Human C3 [1]) was 6.4 nM and the “IC50[nM], inhibition of hemolysis” value (Human C3 [2]) was under 100 nM.

B8: Compound 67 (peptide)
peptide: Ac-SEFCI[Trp(1-Me)]QDWGEHRCTGAES-NH2
modifications: disulfide 4-14
SMILES: CC[C@H](C)[C@@H]1NC(=O)[C@@H](NC(=O)[C@H](Cc2ccccc2)NC(=O)[C@H](CCC(=O)O)NC(=O)[C@H](CO)NC(C)=O)CSSC[C@@H](C(=O)N[C@H](C(=O)NCC(=O)N[C@@H](C)C(=O)N[C@@H](CCC(=O)O)C(=O)N[C@@H](CO)C(N)=O)[C@@H](C)O)NC(=O)[C@H](CCCNC(=N)N)NC(=O)[C@H](Cc2c[nH]cn2)NC(=O)[C@H](CCC(=O)O)NC(=O)CNC(=O)[C@H](Cc2c[nH]c3ccccc23)NC(=O)[C@H](CC(=O)O)NC(=O)[C@H](CCC(N)=O)NC(=O)[C@H](Cc2cn(C)c3ccccc23)NC1=O
In the case of B8, the Kd (Human C3 [1]) is reported as 0.68 nM and the “IC50[nM], inhibition of hemolysis” value (Human C3 [2]) is reported as under 100 nM.

B9: Compound 23 (peptide)
peptide: Ac-FCIWQDWGEHRCT-NH2
modifications: disulfide 2-12
SMILES: CC[C@H](C)[C@@H]1NC(=O)[C@@H](NC(=O)[C@H](Cc2ccccc2)NC(C)=O)CSSC[C@@H](C(=O)N[C@H](C(N)=O)[C@@H](C)O)NC(=O)[C@H](CCCNC(=N)N)NC(=O)[C@H](Cc2c[nH]cn2)NC(=O)[C@H](CCC(=O)O)NC(=O)CNC(=O)[C@H](Cc2c[nH]c3ccccc23)NC(=O)[C@H](CC(=O)O)NC(=O)[C@H](CCC(N)=O)NC(=O)[C@H](Cc2c[nH]c3ccccc23)NC1=O
In the case of B9, the Kd (Human C3 [1]) is reported as 2.8 nM and the “IC50[nM], inhibition of hemolysis” value (Human C3 [2]) is reported as under 100 nM.

B10: Compound 61 (peptide)
peptide: Ac-FCI[Trp(1-Me)]QDWGEHRCTGAES-NH2
modifications: disulfide 2-12
SMILES: CC[C@H](C)[C@@H]1NC(=O)[C@@H](NC(=O)[C@H](Cc2ccccc2)NC(C)=O)CSSC[C@@H](C(=O)N[C@H](C(=O)NCC(=O)N[C@@H](C)C(=O)N[C@@H](CCC(=O)O)C(=O)N[C@@H](CO)C(N)=O)[C@@H](C)O)NC(=O)[C@H](CCCNC(=N)N)NC(=O)[C@H](Cc2c[nH]cn2)NC(=O)[C@H](CCC(=O)O)NC(=O)CNC(=O)[C@H](Cc2c[nH]c3ccccc23)NC(=O)[C@H](CC(=O)O)NC(=O)[C@H](CCC(N)=O)NC(=O)[C@H](Cc2cn(C)c3ccccc23)NC1=O
For B10, the Kd (Human C3 [1]) was 0.33 nM and the “IC50[nM], inhibition of hemolysis” value (Human C3 [2]) was under 100 nM.

From patent US20220306695A1, “COMPSTATIN ANALOGUES AND THEIR MEDICAL USES” (priority 2019, published 2022)
